Data published in PMC4615246 (Nucleus, 2015).

Key:
Test in all cases: LacI/LacO array recruitment in cells
LacI-CFP-Nup107 = target: T1, LacI-CFP-Nup107 (human, UniProt P57740 1-925)
T1 sequence: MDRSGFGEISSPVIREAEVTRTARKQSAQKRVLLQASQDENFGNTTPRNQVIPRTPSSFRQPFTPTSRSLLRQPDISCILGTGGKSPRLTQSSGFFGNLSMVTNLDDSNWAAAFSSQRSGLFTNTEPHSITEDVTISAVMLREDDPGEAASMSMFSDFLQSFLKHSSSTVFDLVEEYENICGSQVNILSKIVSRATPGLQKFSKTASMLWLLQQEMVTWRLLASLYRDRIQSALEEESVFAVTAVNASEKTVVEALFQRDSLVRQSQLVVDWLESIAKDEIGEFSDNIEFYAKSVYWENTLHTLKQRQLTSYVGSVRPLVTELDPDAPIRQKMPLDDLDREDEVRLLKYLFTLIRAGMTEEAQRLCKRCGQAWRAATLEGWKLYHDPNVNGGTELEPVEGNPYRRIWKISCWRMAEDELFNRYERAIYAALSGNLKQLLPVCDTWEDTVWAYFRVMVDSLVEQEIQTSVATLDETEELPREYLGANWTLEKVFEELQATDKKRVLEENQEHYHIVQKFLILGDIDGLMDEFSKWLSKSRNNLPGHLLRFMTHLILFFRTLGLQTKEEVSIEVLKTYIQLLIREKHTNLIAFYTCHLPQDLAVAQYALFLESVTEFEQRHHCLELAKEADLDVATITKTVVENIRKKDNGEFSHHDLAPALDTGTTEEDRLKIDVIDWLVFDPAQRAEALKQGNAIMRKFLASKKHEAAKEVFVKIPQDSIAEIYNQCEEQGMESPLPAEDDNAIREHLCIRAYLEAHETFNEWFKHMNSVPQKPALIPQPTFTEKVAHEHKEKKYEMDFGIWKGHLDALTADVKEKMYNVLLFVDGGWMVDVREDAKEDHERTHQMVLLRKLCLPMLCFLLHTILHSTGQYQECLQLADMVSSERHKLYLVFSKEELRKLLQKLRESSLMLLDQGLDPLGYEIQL

LacI-CFP-Nup50 = target: T2, LacI-CFP-Nup50 (human, UniProt Q9UKX7 1-468)
T2 sequence: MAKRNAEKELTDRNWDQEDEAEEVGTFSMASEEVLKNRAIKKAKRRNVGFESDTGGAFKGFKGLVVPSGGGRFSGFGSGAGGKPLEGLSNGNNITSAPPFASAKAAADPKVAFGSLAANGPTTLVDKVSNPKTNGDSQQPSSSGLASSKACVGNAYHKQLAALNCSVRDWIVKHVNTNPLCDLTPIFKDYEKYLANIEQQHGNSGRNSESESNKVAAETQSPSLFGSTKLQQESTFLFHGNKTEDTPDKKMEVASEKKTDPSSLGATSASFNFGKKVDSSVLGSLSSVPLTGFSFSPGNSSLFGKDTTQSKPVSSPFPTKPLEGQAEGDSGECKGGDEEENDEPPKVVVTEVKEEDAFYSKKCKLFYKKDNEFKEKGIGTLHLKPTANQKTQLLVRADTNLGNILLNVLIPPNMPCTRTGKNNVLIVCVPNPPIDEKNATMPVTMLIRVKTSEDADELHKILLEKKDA

LacI-CFP-Nup153 = target: T3, LacI-CFP-Nup153 (human, UniProt P49790 1-1475)
T3 sequence: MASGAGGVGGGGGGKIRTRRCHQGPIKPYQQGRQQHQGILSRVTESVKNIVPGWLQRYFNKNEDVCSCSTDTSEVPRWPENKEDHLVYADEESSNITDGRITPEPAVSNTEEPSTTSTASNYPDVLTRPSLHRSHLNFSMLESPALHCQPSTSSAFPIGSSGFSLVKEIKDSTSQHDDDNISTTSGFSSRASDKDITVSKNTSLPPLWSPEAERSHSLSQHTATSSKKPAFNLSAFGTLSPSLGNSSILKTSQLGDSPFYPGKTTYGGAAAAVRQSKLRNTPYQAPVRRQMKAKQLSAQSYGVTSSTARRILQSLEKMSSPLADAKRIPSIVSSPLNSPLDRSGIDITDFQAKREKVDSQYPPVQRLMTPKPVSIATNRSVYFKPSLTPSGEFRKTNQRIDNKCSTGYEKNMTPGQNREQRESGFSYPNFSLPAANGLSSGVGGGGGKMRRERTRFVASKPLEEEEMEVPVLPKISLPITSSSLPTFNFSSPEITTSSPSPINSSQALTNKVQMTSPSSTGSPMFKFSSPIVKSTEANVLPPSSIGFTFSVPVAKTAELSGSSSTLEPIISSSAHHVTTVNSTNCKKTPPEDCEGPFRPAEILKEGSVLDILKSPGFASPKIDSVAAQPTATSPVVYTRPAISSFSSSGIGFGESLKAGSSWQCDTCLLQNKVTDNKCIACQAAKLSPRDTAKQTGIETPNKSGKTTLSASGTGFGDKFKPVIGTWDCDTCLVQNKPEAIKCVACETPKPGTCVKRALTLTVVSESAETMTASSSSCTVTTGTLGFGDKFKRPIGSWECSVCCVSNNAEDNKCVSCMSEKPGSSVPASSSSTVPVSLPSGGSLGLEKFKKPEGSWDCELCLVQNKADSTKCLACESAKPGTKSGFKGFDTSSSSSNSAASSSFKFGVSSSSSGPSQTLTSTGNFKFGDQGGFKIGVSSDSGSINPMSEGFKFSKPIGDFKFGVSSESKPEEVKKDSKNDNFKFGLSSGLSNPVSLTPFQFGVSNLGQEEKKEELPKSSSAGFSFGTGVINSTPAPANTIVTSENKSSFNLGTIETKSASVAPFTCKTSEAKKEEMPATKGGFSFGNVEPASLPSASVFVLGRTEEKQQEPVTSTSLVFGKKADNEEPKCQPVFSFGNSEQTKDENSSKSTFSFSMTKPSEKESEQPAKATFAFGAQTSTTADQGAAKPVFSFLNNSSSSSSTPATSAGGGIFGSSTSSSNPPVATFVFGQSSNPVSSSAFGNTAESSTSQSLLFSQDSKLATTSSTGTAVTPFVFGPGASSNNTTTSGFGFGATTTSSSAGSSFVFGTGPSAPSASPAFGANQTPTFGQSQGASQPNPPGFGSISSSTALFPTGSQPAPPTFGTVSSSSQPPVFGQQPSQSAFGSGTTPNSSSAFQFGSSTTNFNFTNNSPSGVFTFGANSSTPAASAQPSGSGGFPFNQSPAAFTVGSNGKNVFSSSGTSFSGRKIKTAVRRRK

Binder	percent of transfected cells showing colocalization (LacI-CFP-Nup107) [%]	percent of transfected cells showing colocalization (LacI-CFP-Nup50) [%]	percent of transfected cells showing colocalization (LacI-CFP-Nup153) [%]
Nup53 (endogenous) (natural protein) MAAFAVEPQGPALGSEPMMLGSPTSPKPGVNAQFLPGFLMGDLPAPVTPQPRSISGPSVGVMEMRSPLLAGGSPPQPVVPAHKDKSGAPPVRSIYDDISSPGLGSTPLTSRRQPNISVMQSPLVGVTSTPGTGQSMFSPASIGQPRKTTLSPAQLDPFYTQGDSLTSEDHLDDSWVTVFGFPQASASYILLQFAQYGNILKHVMSNTGNWMHIRYQSKLQARKALSKDGRIFGESIMIGVKPCIDKSVMESSDRCALSSPSLAFTPPIKTLGTPTQPGSTPRISTMRPLATAYKASTSDYQVISDRQTPKKDESLVSKAMEYMFGW		6	14
Nup62 (endogenous) (natural protein) MSGFNFGGTGAPTGGFTFGTAKTATTTPATGFSFSTSGTGGFNFGAPFQPATSTPSTGLFSLATQTPATQTTGFTFGTATLASGGTGFSLGIGASKLNLSNTAATPAMANPSGFGLGSSNLTNAISSTVTSSQGTAPTGFVFGPSTTSVAPATTSGGFSFTGGSTAQPSGFNIGSAGNSAQPTAPATLPFTPATPAATTAGATQPAAPTPTATITSTGPSLFASIATAPTSSATTGLSLCTPVTTAGAPTAGTQGFSLKAPGAASGTSTTTSTAATATATTTSSSSTTGFALNLKPLAPAGIPSNTAAAVTAPPGPGAAAGAAASSAMTYAQLESLINKWSLELEDQERHFLQQATQVNAWDRTLIENGEKITSLHREVEKVKLDQKRLDQELDFILSQQKELEDLLSPLEELVKEQSGTIYLQHADEEREKTYKLAENIDAQLKRMAQDLKDIIEHLNTSGAPADTSDPLQQICKILNAHMDSLQWIDQNSALLQRKVEEVTKVCEGRRKEQERSFRITFD	24	43	56

Now from value to binder:

percent of transfected cells showing colocalization (LacI-CFP-Nup107) [%]	percent of transfected cells showing colocalization (LacI-CFP-Nup50) [%]	percent of transfected cells showing colocalization (LacI-CFP-Nup153) [%]	Binder
39	4	33	Nup160 (endogenous) (natural protein) MLHLSAAPPAPPPEVTATARPCLCSVGRRGDGGKMAAAGALERSFVELSGAERERPRHFREFTVCSIGTANAVAGAVKYSESAGGFYYVESGKLFSVTRNRFIHWKTSGDTLELMEESLDINLLNNAIRLKFQNCSVLPGGVYVSETQNRVIILMLTNQTVHRLLLPHPSRMYRSELVVDSQMQSIFTDIGKVDFTDPCNYQLIPAVPGISPNSTASTAWLSSDGEALFALPCASGGIFVLKLPPYDIPGMVSVVELKQSSVMQRLLTGWMPTAIRGDQSPSDRPLSLAVHCVEHDAFIFALCQDHKLRMWSYKEQMCLMVADMLEYVPVKKDLRLTAGTGHKLRLAYSPTMGLYLGIYMHAPKRGQFCIFQLVSTESNRYSLDHISSLFTSQETLIDFALTSTDIWALWHDAENQTVVKYINFEHNVAGQWNPVFMQPLPEEEIVIRDDQDPREMYLQSLFTPGQFTNEALCKALQIFCRGTERNLDLSWSELKKEVTLAVENELQGSVTEYEFSQEEFRNLQQEFWCKFYACCLQYQEALSHPLALHLNPHTNMVCLLKKGYLSFLIPSSLVDHLYLLPYENLLTEDETTISDDVDIARDVICLIKCLRLIEESVTVDMSVIMEMSCYNLQSPEKAAEQILEDMITIDVENVMEDICSKLQEIRNPIHAIGLLIREMDYETEVEMEKGFNPAQPLNIRMNLTQLYGSNTAGYIVCRGVHKIASTRFLICRDLLILQQLLMRLGDAVIWGTGQLFQAQQDLLHRTAPLLLSYYLIKWGSECLATDVPLDTLESNLQHLSVLELTDSGALMANRFVSSPQTIVELFFQEVARKHIISHLFSQPKAPLSQTGLNWPEMITAITSYLLQLLWPSNPGCLFLECLMGNCQYVQLQDYIQLLHPWCQVNVGSCRFMLGRCYLVTGEGQKALECFCQAASEVGKEEFLDRLIRSEDGEIVSTPRLQYYDKVLRLLDVIGLPELVIQLATSAITEAGDDWKSQATLRTCIFKHHLDLGHNSQAYEALTQIPDSSRQLDCLRQLVVVLCERSQLQDLVEFPYVNLHNEVVGIIESRARAVDLMTHNYYELLYAFHIYRHNYRKAGTVMFEYGMRLGREVRTLRGLEKQGNCYLAALNCLRLIRPEYAWIVQPVSGAVYDRPGASPKRNHDGECTAAPTNRQIEILELEDLEKECSLARIRLTLAQHDPSAVAVAGSSSAEEMVTLLVQAGLFDTAISLCQTFKLPLTPVFEGLAFKCIKLQFGGEAAQAEAWAWLAANQLSSVITTKESSATDEAWRLLSTYLERYKVQNNLYHHCVINKLLSHGVPLPNWLINSYKKVDAAELLRLYLNYDLLEEAVDLVSEYVDAVLGKGHQYFGIEFPLSATAPMVWLPYSSIDQLLQALGENSANSHNIALSQKILDKLEDYQQKVDKATRDLLYRRTL
9		23	Nup93 (endogenous) (natural protein) MDTEGFGELLQQAEQLAAETEGISELPHVERNLQEIQQAGERLRSRTLTRTSQETADVKASVLLGSRGLDISHISQRLESLSAATTFEPLEPVKDTDIQGFLKNEKDNALLSAIEESRKRTFGMAEEYHRESMLVEWEQVKQRILHTLLASGEDALDFTQESEPSYISDVGPPGRSSLDNIEMAYARQIYIYNEKIVNGHLQPNLVDLCASVAELDDKSISDMWTMVKQMTDVLLTPATDALKNRSSVEVRMEFVRQALAYLEQSYKNYTLVTVFGNLHQAQLGGVPGTYQLVRSFLNIKLPAPLPGLQDGEVEGHPVWALIYYCMRCGDLLAASQVVNRAQHQLGEFKTWFQEYMNSKDRRLSPATENKLRLHYRRALRNNTDPYKRAVYCIIGRCDVTDNQSEVADKTEDYLWLKLNQVCFDDDGTSSPQDRLTLSQFQKQLLEDYGESHFTVNQQPFLYFQVLFLTAQFEAAVAFLFRMERLRCHAVHVALVLFELKLLLKSSGQSAQLLSHEPGDPPCLRRLNFVRLLMLYTRKFESTDPREALQYFYFLRDEKDSQGENMFLRCVSELVIESREFDMILGKLENDGSRKPGVIDKFTSDTKPIINKVASVAENKGLFEEAAKLYDLAKNADKVLELMNKLLSPVVPQISAPQSNKERLKNMALSIAERYRAQGISANKFVDSTFYLLLDLITFFDEYHSGHIDRAFDIIERLKLVPLNQESVEERVAAFRNFSDEIRHNLSEVLLATMNILFTQFKRLKGTSPSSSSRPQRVIEDRDSQLRSQARTLITFAGMIPYRTSGDTNARLVQMEVLMN
